Reference: IntAct's records for PubMed 35512704

B1: Speckle-type POZ protein (Homo sapiens), O43791 (parent)
chain: MSRVPSPPPPAEMSSGPVAESWCYTQIKVVKFSYMWTINNFSFCREEMGEVIKSSTFSSGANDKLKWCLRVNPKGLDEESKDYLSLYLLLVSCPKSEVRAKFKFSILNAKGEETKAMESQRAYRFVQGKDWGFKKFIRRDFLLDEANGLLPDDKLTLFCEVSVVQDSVNISGQNTMNMVKVPECRLADELGGLWENSRFTDCCLCVAGQEFQAHKAILAARSPVFSAMFEHEMEESKKNRVEINDVEPEVFKEMMCFIYTGKAPNLDKMADDLLAAADKYALERLKVMCEDALCSNLSVENAAEILILADLHSADQLKTQAVDFINYHASDVLETSGWKSMVVSHPHLVAEAYRSLASAQCPFLGPPRKRLKQS
partner: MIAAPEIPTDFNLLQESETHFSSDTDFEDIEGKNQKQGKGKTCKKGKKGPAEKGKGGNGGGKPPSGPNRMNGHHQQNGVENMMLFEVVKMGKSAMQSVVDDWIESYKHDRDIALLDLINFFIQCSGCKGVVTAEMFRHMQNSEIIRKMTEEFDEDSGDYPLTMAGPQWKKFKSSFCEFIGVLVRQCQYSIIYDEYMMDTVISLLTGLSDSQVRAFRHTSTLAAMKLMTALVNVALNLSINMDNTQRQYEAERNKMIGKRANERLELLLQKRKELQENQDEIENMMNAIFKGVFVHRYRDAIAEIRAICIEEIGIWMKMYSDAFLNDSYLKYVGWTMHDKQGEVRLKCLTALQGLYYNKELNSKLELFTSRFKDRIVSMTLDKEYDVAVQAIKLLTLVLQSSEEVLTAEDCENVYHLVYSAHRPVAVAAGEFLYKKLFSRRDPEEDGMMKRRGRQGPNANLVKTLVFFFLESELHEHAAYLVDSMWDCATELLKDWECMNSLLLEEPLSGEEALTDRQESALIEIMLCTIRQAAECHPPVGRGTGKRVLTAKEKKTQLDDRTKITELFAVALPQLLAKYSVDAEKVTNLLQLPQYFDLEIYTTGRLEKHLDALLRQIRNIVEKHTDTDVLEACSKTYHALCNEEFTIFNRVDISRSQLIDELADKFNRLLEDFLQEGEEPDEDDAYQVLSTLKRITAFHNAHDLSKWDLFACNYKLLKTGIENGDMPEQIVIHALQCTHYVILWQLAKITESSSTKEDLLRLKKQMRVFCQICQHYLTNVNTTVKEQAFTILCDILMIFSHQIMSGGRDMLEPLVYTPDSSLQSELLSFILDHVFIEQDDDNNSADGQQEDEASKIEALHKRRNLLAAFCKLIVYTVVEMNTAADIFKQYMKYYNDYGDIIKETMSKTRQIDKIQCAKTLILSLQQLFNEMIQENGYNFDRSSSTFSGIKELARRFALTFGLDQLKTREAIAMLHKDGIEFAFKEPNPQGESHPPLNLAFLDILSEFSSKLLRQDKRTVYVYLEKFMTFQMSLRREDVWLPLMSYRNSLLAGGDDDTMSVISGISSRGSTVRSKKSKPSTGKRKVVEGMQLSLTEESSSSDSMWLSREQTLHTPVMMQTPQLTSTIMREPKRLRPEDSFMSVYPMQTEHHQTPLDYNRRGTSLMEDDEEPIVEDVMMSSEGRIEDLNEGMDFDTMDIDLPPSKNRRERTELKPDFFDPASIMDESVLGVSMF
B2: Speckle-type POZ protein (Homo sapiens), O43791 (parent)
chain: B1 chain
partner: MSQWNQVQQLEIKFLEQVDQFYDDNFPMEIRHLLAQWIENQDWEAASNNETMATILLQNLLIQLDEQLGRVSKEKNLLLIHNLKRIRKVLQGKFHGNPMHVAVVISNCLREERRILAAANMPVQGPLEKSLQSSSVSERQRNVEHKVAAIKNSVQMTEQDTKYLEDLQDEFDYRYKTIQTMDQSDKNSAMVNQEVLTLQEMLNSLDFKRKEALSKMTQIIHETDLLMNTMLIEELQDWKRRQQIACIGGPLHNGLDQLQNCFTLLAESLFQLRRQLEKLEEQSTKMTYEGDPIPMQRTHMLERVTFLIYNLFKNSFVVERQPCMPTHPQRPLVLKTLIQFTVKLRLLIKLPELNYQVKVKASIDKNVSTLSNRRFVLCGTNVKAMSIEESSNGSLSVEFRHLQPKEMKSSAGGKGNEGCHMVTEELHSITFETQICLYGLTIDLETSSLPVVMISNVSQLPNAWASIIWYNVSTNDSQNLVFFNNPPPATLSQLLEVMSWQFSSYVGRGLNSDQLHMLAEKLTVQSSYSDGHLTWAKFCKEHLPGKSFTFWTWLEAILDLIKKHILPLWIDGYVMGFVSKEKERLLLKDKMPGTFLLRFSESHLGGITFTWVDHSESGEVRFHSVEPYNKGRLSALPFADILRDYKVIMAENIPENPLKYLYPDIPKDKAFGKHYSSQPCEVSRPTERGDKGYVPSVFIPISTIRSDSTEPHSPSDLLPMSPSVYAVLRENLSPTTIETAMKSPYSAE
B3: Speckle-type POZ protein (Homo sapiens), O43791 (parent)
chain: B1 chain
partner: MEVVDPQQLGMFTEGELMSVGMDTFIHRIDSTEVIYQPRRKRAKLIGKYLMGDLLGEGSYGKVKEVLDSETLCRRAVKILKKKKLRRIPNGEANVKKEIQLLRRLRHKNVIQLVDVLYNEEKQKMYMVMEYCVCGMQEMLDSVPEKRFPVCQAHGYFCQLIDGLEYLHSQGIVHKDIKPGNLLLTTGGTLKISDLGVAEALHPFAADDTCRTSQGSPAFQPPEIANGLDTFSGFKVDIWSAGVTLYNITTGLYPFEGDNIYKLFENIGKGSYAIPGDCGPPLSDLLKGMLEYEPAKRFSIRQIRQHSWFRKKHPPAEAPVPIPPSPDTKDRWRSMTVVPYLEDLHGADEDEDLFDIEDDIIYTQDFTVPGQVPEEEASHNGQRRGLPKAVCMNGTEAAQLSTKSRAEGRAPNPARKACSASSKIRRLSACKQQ
B4: Speckle-type POZ protein (Homo sapiens), O43791 (parent)
chain: B1 chain
partner: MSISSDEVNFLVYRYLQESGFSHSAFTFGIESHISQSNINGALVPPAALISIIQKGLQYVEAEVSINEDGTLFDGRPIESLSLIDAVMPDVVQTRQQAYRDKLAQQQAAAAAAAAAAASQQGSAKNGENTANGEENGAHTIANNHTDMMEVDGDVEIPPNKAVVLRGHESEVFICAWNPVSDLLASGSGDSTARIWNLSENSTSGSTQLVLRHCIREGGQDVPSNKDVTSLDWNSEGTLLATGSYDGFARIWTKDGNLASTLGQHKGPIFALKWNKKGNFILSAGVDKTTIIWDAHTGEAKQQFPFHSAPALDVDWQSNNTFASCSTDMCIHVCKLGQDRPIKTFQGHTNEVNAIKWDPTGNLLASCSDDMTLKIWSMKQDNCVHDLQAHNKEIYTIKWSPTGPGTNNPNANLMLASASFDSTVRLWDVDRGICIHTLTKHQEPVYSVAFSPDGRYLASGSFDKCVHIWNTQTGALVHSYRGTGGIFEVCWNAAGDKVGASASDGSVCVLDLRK
B5: Speckle-type POZ protein (Homo sapiens), O43791 (parent)
chain: B1 chain
partner: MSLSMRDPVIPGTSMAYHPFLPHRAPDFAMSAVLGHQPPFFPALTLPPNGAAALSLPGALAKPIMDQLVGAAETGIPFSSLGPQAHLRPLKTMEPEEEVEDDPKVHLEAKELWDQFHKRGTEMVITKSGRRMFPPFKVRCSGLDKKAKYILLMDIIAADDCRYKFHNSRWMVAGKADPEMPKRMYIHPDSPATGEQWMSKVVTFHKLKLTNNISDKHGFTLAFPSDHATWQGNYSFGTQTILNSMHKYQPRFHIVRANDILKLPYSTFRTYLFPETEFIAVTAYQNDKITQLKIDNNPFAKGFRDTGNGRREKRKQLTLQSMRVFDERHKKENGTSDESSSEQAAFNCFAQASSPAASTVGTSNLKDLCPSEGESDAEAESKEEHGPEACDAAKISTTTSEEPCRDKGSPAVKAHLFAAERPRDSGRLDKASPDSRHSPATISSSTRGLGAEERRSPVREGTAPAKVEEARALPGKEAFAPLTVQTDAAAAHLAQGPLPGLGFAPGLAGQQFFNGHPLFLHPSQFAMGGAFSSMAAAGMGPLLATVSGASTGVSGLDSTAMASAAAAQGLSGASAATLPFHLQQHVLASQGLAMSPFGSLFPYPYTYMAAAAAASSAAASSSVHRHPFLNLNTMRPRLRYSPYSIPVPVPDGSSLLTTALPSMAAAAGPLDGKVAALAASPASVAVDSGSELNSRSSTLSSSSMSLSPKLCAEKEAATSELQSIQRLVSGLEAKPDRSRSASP
B6: Speckle-type POZ protein (Homo sapiens), O43791 (parent)
chain: B1 chain
partner: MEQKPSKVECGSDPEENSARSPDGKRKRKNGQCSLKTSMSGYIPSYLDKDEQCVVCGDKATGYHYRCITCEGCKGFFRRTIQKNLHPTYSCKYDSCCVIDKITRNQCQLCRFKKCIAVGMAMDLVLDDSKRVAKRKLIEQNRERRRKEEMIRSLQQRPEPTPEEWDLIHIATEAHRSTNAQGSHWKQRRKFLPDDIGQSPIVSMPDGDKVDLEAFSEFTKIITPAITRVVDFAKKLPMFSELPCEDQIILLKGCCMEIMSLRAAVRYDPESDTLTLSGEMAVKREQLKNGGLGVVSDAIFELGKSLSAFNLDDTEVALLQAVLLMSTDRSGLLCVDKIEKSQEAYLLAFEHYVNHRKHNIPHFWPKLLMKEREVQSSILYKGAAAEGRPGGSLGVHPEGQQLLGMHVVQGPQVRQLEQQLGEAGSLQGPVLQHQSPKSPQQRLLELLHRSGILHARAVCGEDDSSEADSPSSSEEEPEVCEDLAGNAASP
B7: Speckle-type POZ protein (Homo sapiens), O43791 (parent)
chain: B1 chain
partner: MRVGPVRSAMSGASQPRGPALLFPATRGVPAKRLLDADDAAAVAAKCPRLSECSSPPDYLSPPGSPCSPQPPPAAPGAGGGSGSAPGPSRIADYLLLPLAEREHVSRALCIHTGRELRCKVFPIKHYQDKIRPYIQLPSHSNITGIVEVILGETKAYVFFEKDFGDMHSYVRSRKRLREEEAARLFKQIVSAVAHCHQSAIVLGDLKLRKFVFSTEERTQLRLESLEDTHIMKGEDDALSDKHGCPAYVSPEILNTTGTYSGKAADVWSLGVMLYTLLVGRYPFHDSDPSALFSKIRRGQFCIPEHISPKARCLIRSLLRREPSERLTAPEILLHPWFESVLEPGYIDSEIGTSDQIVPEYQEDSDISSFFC

Variants of: B1
Settings: with stag2_human STAG2, Q8N3U4

effect of a mutation on the interaction | Variant
with no effect | F133L

Variants of: B1
Settings: with stag2_human STAG2, Q8N3U4
Remark: another data set of the same source

effect of a mutation on the interaction | Variant
with no effect | Y87C

Variants of: B1
Settings: with stag2_human STAG2, Q8N3U4
Remark: another data set of the same source

effect of a mutation on the interaction | Variant
with no effect | F133V

Variants of: B2
Settings: with stat4_human STAT4, Q14765

effect of a mutation on the interaction | Variant
with no effect | F102C

Variants of: B2
Settings: with stat4_human STAT4, Q14765
Remark: another data set of the same source

effect of a mutation on the interaction | Variant
with no effect | F133L

Variants of: B2
Settings: with stat4_human STAT4, Q14765
Remark: another data set of the same source

effect of a mutation on the interaction | Variant
with no effect | Y87C

Variants of: B2
Settings: with stat4_human STAT4, Q14765
Remark: another data set of the same source

effect of a mutation on the interaction | Variant
with no effect | F133V

Variants of: B3
Settings: with stk11_human STK11, Q15831

effect of a mutation on the interaction | Variant
with no effect | F102C

Variants of: B3
Settings: with stk11_human STK11, Q15831
Remark: another data set of the same source

effect of a mutation on the interaction | Variant
with no effect | F133L

Variants of: B3
Settings: with stk11_human STK11, Q15831
Remark: another data set of the same source

effect of a mutation on the interaction | Variant
with no effect | Y87C

Variants of: B3
Settings: with stk11_human STK11, Q15831
Remark: another data set of the same source

effect of a mutation on the interaction | Variant
with no effect | F133V

Variants of: B4
Settings: with tbl1r_human TBL1XR1, Q9BZK7

effect of a mutation on the interaction | Variant
with no effect | F102C

Variants of: B4
Settings: with tbl1r_human TBL1XR1, Q9BZK7
Remark: another data set of the same source

effect of a mutation on the interaction | Variant
with no effect | F133L

Variants of: B4
Settings: with tbl1r_human TBL1XR1, Q9BZK7
Remark: another data set of the same source

effect of a mutation on the interaction | Variant
with no effect | Y87C

Variants of: B4
Settings: with tbl1r_human TBL1XR1, Q9BZK7
Remark: another data set of the same source

effect of a mutation on the interaction | Variant
with no effect | F133V

Variants of: B5
Settings: with tbx3_human TBX3, O15119

effect of a mutation on the interaction | Variant
with no effect | F102C

Variants of: B5
Settings: with tbx3_human TBX3, O15119
Remark: another data set of the same source

effect of a mutation on the interaction | Variant
with no effect | F133L

Variants of: B5
Settings: with tbx3_human TBX3, O15119
Remark: another data set of the same source

effect of a mutation on the interaction | Variant
with no effect | Y87C

Variants of: B5
Settings: with tbx3_human TBX3, O15119
Remark: another data set of the same source

effect of a mutation on the interaction | Variant
with no effect | F133V

Variants of: B6
Settings: with tha_human THRA

effect of a mutation on the interaction | Variant
with no effect | F102C

Variants of: B6
Settings: with tha_human THRA
Remark: another data set of the same source

effect of a mutation on the interaction | Variant
with no effect | F133L

Variants of: B6
Settings: with tha_human THRA
Remark: another data set of the same source

effect of a mutation on the interaction | Variant
with no effect | Y87C

Variants of: B6
Settings: with tha_human THRA
Remark: another data set of the same source

effect of a mutation on the interaction | Variant
with no effect | F133V

Variants of: B7
Settings: with trib1_human TRIB1, Q96RU8

effect of a mutation on the interaction | Variant
with no effect | F102C
